Experimental data from patent US20060057623A1.

Target: p300 (UniProt Q09472)
Assay: cell-based or functional assay

Sequence of p300 (Q09472 2-2414 limits assumed): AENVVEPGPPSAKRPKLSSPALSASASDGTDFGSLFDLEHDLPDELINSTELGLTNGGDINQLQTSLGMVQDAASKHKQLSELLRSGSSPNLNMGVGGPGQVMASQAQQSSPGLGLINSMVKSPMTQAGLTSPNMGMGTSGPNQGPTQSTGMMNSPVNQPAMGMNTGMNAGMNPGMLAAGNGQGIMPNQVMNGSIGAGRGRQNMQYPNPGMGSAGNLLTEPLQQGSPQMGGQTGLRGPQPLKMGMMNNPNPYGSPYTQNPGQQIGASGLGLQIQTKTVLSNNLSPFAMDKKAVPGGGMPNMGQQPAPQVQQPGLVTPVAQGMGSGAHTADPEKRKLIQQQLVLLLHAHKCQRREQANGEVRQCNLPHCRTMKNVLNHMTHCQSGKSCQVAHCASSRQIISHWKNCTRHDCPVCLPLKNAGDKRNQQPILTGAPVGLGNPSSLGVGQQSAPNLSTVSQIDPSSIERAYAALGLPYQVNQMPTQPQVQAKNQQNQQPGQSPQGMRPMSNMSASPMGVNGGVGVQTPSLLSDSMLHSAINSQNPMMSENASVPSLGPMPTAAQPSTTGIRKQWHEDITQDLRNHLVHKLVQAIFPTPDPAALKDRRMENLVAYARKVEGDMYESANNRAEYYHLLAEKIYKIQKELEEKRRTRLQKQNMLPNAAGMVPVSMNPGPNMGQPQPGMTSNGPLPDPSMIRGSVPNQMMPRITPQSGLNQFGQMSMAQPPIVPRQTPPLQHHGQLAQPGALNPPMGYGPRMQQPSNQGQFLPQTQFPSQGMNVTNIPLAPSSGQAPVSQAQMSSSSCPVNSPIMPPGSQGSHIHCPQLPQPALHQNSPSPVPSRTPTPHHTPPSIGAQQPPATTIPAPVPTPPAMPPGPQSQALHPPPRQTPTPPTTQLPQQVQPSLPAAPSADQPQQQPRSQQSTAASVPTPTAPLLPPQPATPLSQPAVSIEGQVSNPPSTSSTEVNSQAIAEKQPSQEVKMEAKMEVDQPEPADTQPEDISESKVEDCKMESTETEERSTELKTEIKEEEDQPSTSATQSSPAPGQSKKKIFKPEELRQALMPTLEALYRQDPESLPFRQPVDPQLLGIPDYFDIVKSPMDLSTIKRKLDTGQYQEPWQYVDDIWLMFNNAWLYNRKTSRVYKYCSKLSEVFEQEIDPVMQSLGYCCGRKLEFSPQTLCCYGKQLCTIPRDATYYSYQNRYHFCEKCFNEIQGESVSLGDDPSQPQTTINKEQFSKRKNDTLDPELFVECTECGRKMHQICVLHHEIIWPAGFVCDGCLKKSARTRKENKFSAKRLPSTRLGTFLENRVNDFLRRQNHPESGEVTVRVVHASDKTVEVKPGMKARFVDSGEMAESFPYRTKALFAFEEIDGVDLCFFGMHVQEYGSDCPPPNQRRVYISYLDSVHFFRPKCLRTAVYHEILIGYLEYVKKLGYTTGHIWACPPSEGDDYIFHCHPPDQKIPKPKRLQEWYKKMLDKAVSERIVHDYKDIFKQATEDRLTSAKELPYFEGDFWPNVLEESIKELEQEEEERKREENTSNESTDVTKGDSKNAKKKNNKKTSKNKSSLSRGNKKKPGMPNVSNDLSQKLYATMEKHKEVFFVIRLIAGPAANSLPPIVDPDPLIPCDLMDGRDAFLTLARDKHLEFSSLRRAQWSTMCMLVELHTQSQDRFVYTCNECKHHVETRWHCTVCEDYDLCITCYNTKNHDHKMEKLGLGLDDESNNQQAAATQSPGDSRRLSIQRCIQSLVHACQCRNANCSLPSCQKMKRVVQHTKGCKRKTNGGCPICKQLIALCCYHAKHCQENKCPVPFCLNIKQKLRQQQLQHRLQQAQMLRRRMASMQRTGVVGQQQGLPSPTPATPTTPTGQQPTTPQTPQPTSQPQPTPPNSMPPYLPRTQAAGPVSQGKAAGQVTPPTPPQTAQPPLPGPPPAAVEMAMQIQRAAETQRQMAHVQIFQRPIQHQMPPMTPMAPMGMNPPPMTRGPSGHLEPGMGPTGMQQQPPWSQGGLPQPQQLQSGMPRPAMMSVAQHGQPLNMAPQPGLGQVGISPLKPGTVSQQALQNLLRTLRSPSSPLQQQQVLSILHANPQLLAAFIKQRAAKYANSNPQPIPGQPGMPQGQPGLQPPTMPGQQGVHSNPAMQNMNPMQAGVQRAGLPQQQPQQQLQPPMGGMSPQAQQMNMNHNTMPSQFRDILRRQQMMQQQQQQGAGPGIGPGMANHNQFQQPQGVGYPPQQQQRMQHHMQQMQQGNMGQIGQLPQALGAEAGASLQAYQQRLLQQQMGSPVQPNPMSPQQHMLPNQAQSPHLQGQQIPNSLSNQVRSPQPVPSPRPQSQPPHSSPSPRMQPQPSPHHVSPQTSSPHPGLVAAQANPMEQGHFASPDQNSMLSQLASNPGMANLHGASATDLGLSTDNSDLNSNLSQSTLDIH

E1AΔ2-36, a p300 binding-defective mutant
cyclin D1 promoter CD1 (-1745/+134) luciferase activity with SENP1 (PC-3 cells): 38%
